Ends that are not written are not given here.
T1: potassium channel Kv3.1, native protein in PSD preparations (rat, UniProt P25122 1-585)
T1 sequence (looked up): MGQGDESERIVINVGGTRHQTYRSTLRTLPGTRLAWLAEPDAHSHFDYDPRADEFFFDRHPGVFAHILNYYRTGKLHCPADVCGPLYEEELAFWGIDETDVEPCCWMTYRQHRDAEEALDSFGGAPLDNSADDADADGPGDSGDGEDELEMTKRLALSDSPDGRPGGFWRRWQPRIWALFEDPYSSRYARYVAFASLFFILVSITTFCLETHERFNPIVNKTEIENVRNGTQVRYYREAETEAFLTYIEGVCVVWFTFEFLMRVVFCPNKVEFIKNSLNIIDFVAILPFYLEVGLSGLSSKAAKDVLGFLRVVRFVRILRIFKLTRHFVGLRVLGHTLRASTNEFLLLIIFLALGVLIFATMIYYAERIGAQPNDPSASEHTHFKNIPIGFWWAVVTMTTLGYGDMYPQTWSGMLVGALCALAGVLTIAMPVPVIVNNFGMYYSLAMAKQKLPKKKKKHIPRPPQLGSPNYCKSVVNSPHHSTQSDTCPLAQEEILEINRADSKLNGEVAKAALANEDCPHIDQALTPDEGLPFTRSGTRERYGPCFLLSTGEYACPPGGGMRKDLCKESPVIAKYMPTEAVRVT

B1: ND2.2-GST fusion protein (amino acids 189-238 of human ND2) (other)
chain: WMMAVLPYNPNMTILNLTIYIILTTTAFLLLNLNSSTTTLLLSRTWNKLT
modifications: also: fused to GST tag of pGEX vector, sequence and linker not given here
notes: not shown: glutathione S-transferase (GST) tag of vector pGEX4T-1
B2: ND2.3-GST fusion protein (amino acids 1-188 of human ND2) (other)
chain: MNPLAQPVIYSTIFAGTLITALSSHWFFTWVGLEMNMLAFIPVLTKKMNPRSTEAAIKYFLTQATASMILLMAILFNNMLSGQWTMTNTTNQYSSLMIMMAMAMKLGMAPFHFWVPEVTQGTPLTSGLLLLTWQKLAPISIMYQISPSLNVSLLLTLSILSIMAGSWGGLNQTQLRKILAYSSITHMG
notes: as for B1
B3: NADH dehydrogenase subunit 2 (ND2), native protein in brain lysates, PSD preparations, hippocampal neurons and tissues (other, UniProt P11662 1-346, looked up)
chain: MNPITLIIIYFTILMGPVITMSSSNLLLMWVGLEMSLLAIIPLLANKKSPRSTEAATKYFLTQATASMIILLVIILNYKQSGMWTLQQQTNNMLLNMMLISLAMKLGLAPFHYWLPEVTQGIPLHIGLILLTWQKIAPLSILYQFYQLLNPTITTILAISSVFVGAWGGLNQTQTRKIMAYSSIAHMGWMTAILPYNPNLTLLNLTIYILLTVPMFITLMTNSATTINTLSLAWNKTPMILTMTSIILLSLGGLPPLTGFLPKWAIISELLKNNCSTLSTLMAIMALLSLFFYTRLIYSMSLTMFPTNNNSKMISHHHQNPKHNFILPTLTVLSTLTLPLSSQLIT

What was measured:
[1] = target: T2, recombinant Src unique domain (biotinylated probe) (murine (n-Src), UniProt P12931 5-83 (human entry), biotinylated); assay: blot of ND2-GST fusion proteins probed with biotinylated Src unique domain, streptavidin-HRP
T2 construct: also called unique domain of Src; Src unique domain protein; not shown: GST tag of vector pGEX2T'6; purified as GST fusion protein

[2] = target: non-receptor tyrosine kinase Src, native protein in brain lysates, PSD preparations, hippocampal neurons and … (rat, UniProt Q9WUD9 2-536, limits assumed); assay: GST pull-down from PSD preparations, immunoblot
[3] = target: T1, potassium channel Kv3.1, native protein …; assay: co-immunoprecipitation from PSD preparations with anti-Kv3.1, probed with anti-ND2
[4] = target: T3, GluR2, native protein in PSD preparations (rat, UniProt P19491 22-883, limits assumed); assay: co-immunoprecipitation from PSD preparations with anti-GluR2, probed with anti-ND2
T3 construct: also called AMPA receptor complex
T3 sequence (P19491 22-883 limits assumed): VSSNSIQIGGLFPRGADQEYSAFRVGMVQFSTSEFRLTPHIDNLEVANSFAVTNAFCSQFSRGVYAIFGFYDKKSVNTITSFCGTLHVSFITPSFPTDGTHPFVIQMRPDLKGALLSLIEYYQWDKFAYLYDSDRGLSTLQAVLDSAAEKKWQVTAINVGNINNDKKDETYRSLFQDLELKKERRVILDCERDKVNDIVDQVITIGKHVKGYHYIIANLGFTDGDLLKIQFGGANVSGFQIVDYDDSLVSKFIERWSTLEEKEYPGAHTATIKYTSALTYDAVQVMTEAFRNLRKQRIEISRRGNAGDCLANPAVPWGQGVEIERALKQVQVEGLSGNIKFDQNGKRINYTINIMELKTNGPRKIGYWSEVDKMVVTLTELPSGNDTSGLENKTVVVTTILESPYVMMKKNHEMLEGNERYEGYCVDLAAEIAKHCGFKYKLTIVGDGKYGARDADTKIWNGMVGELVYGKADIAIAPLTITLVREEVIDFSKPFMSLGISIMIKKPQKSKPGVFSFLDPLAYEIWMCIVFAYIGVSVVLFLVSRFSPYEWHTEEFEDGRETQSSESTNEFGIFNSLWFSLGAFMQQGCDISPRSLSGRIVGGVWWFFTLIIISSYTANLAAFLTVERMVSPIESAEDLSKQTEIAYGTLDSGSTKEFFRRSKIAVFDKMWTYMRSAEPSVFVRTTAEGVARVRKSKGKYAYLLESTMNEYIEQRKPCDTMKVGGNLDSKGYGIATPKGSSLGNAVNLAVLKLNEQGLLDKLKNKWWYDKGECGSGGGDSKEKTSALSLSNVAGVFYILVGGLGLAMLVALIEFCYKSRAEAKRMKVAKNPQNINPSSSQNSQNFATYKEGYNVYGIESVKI

Row | Binder | binding result [1] | binding result [2] | binding result [3] | binding result [4]
1 | B1 | no binding | no binding |  | 
2 | B2 |  | no binding |  | 
3 | B3 |  |  | no binding | no binding

Source: patent US20070059320A1 (HOSPITAL FOR SICK CHILDREN, published 2007)
